The labels stand for the following.
T1: cynomolgus monkey FcγRIIa3 extracellular domain, C-terminal His-tag (cynomolgus monkey)
T1 construct: also called cyno FcγRIIa3; cynoFcgRIIa3; not shown: His-tag added to C-terminus
T1 chain: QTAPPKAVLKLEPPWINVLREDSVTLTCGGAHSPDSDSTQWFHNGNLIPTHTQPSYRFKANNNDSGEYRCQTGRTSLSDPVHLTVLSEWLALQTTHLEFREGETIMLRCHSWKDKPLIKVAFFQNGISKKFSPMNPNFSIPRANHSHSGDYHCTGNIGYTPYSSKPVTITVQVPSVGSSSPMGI

T2: human FcγRIIb extracellular domain, C-terminal His-tag (human, UniProt P31994 43-217)
T2 construct: also called FcgRIIb (human); not shown: His-tag added to C-terminus
T2 sequence: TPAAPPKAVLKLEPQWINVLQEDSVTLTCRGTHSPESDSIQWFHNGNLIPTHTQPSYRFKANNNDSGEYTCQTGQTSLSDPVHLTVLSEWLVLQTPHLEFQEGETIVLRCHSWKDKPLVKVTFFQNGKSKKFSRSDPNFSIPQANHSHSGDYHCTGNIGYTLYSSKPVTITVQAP

B1: MS_M103205H795-SG1/M103202L889-SK1 (antibody, human IgG1, kappa)
heavy: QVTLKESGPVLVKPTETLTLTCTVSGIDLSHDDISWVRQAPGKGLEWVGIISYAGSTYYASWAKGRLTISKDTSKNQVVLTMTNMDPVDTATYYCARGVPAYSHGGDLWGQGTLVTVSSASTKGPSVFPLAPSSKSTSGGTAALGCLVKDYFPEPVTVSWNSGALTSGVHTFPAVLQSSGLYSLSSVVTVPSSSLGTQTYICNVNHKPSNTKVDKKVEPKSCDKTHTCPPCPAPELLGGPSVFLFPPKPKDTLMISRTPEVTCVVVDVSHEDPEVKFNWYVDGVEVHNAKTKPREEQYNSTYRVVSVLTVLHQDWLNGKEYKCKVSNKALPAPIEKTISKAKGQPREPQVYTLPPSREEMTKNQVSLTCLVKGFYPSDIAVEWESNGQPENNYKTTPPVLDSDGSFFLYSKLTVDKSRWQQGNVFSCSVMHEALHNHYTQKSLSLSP
light: DIVMTQSPATLSLSPGERATLSCTSSQSVYHANWLSWFQQKPGQPPKLLIYWASTLAYGVPSRFSGSGSGTDFTLTISSLQPEDAATYYCAGGYGGGRYAFGQGTKVEIKRTVAAPSVFIFPPSDEQLKSGTASVVCLLNNFYPREAKVQWKVDNALQSGNSQESVTEQDSKDSTYSLSSTLTLSKADYEKHKVYACEVTHQGLSSPVTKSFNRGEC
notes: Parent antibody; also called MS1032LO06-SG1
B2: M103205H795-MY274/M103202L889-SK1 (antibody, human IgG1, kappa)
heavy: QVTLKESGPVLVKPTETLTLTCTVSGIDLSHDDISWVRQAPGKGLEWVGIISYAGSTYYASWAKGRLTISKDTSKNQVVLTMTNMDPVDTATYYCARGVPAYSHGGDLWGQGTLVTVSSASTKGPSVFPLAPSSKSTSGGTAALGCLVKDYFPEPVTVSWNSGALTSGVHTFPAVLQSSGLYSLSSVVTVPSSSLGTQTYICNVNHKPSNTKVDKKVEPKSCDKTHTCPPCPAPELLTGPSVFLFPPKPKDTLMISRTPEVTCVVVDVSDEDPEVKFNWYVDGVEVHNAKTKPREEQYNSTYRVVSVLTVLHQDWLNGKEYKCKVSNKALPKPIEKTISKAKGQPREPQVYTLPPSREEMTKNQVSLTCLVKGFYPSDIAVEWESNGQPENNYKTTPKVLDSDGSFFLYSKLTVDKSRWQQGNVFSCSVMHEALHNHYTQKSLSLSP
light: B1 light
B3: M103205H795-MY310/M103202L889-SK1 (antibody, human IgG1, kappa)
heavy: B2 heavy with D270E, K328T, K398P
light: B1 light
B4: M103205H795-MY269/M103202L889-SK1 (antibody, human IgG1, kappa)
heavy: B2 heavy with T238M
light: B1 light
B5: M103205H795-MY308/M103202L889-SK1 (antibody, human IgG1, kappa)
heavy: B2 heavy with D270E, K398P
light: B1 light
B6: M103205H795-MY318/M103202L889-SK1 (antibody, human IgG1, kappa)
heavy: B2 heavy with T238L, D270E, K328T, K398M
light: B1 light
B7: M103205H795-MY278/M103202L889-SK1 (antibody, human IgG1, kappa)
heavy: B2 heavy with T238M, Q297L, K398P
light: B1 light
B8: M103205H795-MY209/M103202L889-SK1 (antibody, human IgG1, kappa)
heavy: B2 heavy with T238N, Q297L, K328T, K398P
light: B1 light
B9: M103205H795-MY242/M103202L889-SK1 (antibody, human IgG1, kappa)
heavy: B2 heavy with T238G, P240I
light: B1 light
B10: M103205H795-MY271/M103202L889-SK1 (antibody, human IgG1, kappa)
heavy: B2 heavy with T238V
light: B1 light
B11: M103205H795-MY228/M103202L889-SK1 (antibody, human IgG1, kappa)
heavy: B2 heavy with T238G, G239Y, Q297L, K398P
light: B1 light
B12: M103205H795-MY229/M103202L889-SK1 (antibody, human IgG1, kappa)
heavy: B2 heavy with T238G, G239Y, Q297L
light: B1 light
B13: M103205H795-MY311/M103202L889-SK1 (antibody, human IgG1, kappa)
heavy: B2 heavy with D270E, Q297L, K398P
light: B1 light
B14: M103205H795-MY272/M103202L889-SK1 (antibody, human IgG1, kappa)
heavy: B2 heavy with T238Q
light: B1 light
B15: M103205H795-MY312/M103202L889-SK1 (antibody, human IgG1, kappa)
heavy: B2 heavy with D270E, K328T, K398M
light: B1 light
B16: M103205H795-MY273/M103202L889-SK1 (antibody, human IgG1, kappa)
heavy: B2 heavy with T238L
light: B1 light
B17: M103205H795-MY292/M103202L889-SK1 (antibody, human IgG1, kappa)
heavy: B2 heavy with T238G, G239Y, Q297L, K398M
light: B1 light
B18: M103205H795-MY227/M103202L889-SK1 (antibody, human IgG1, kappa)
heavy: B2 heavy with T238G, G239Y
light: B1 light
B19: M103205H795-MY143/M103202L889-SK1 (antibody, human IgG1, kappa)
heavy: B2 heavy with T238S, D270E, K332A, K398M
light: B1 light
B20: M103205H795-MY321/M103202L889-SK1 (antibody, human IgG1, kappa)
heavy: B2 heavy with T238H, K398M
light: B1 light
B21: M103205H795-MY309/M103202L889-SK1 (antibody, human IgG1, kappa)
heavy: B2 heavy with D270E, K398M
light: B1 light
B22: M103205H795-MY281/M103202L889-SK1 (antibody, human IgG1, kappa)
heavy: B2 heavy with T238Q, Q297L, K398P
light: B1 light
B23: M103205H795-MY270/M103202L889-SK1 (antibody, human IgG1, kappa)
heavy: B2 heavy with T238H
light: B1 light
B24: M103205H795-MY276/M103202L889-SK1 (antibody, human IgG1, kappa)
heavy: B2 heavy with T238I
light: B1 light
B25: M103205H795-MY219/M103202L889-SK1 (antibody, human IgG1, kappa)
heavy: B2 heavy with T238G, G239Y, K398P
light: B1 light
B26: M103205H795-MY293/M103202L889-SK1 (antibody, human IgG1, kappa)
heavy: B2 heavy with T238G, G239Y, D270E, Q297L
light: B1 light
B27: M103205H795-MY142/M103202L889-SK1 (antibody, human IgG1, kappa)
heavy: B2 heavy with T238E, D270E, K332A, K398M
light: B1 light
B28: M103205H795-MY213/M103202L889-SK1 (antibody, human IgG1, kappa)
heavy: B2 heavy with T238N
light: B1 light
B29: M103205H795-MY279/M103202L889-SK1 (antibody, human IgG1, kappa)
heavy: B2 heavy with T238H, Q297L, K398P
light: B1 light
B30: M103205H795-MY280/M103202L889-SK1 (antibody, human IgG1, kappa)
heavy: B2 heavy with T238V, Q297L, K398P
light: B1 light

Where a chain is given by its changes, count along the chain named.

The target of the first test is T1, cynomolgus monkey FcγRIIa3 …. The experiment in a line: SPR (Biacore), KD of SG1 / KD of variant.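 Note: relative to parent M103205H795-SG1 carrying the SG1 human heavy chain constant region.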
On to B1, for which the “KD fold (SG1 = 1)” value amounted to 1 fold.

For the molecule B2, the “KD fold (SG1 = 1)” value came to 8.5 fold.

Consider B3, for which the “KD fold (SG1 = 1)” value is 2.4 fold.

Turning to B4, the “KD fold (SG1 = 1)” value was 2.7 fold.

With B5, the “KD fold (SG1 = 1)” value worked out at 1.3 fold.

In the case of B6, the “KD fold (SG1 = 1)” value is 0.5 fold.

On to B7, for which the “KD fold (SG1 = 1)” value came to 1.7 fold.

For the molecule B8, the “KD fold (SG1 = 1)” value was 8.9 fold.

In the case of B9, the “KD fold (SG1 = 1)” value came to 2.9 fold.

B10: the “KD fold (SG1 = 1)” value is 3.5 fold.

Take B11: the “KD fold (SG1 = 1)” value amounted to 4.7 fold.

In the case of B12, the “KD fold (SG1 = 1)” value is 8.5 fold.

Regarding B13, the “KD fold (SG1 = 1)” value turned out to be 2 fold.

In the case of B14, the “KD fold (SG1 = 1)” value worked out at 2.7 fold.

Take B15: the “KD fold (SG1 = 1)” value came out at 4.6 fold.

Turning to B16, the “KD fold (SG1 = 1)” value came out at 1.5 fold.

Turning to B17, the “KD fold (SG1 = 1)” value was 7.7 fold.

For the molecule B18, the “KD fold (SG1 = 1)” value came to 6.3 fold.

Regarding B19, the “KD fold (SG1 = 1)” value was 5.9 fold.

For B20, the “KD fold (SG1 = 1)” value was 3.9 fold.

On to B21, for which the “KD fold (SG1 = 1)” value was found to be 2.4 fold.

With B22, the “KD fold (SG1 = 1)” value was 1.9 fold.

In the case of B23, the “KD fold (SG1 = 1)” value turned out to be 6.5 fold.

For the molecule B24, the “KD fold (SG1 = 1)” value is 3.8 fold.

For the molecule B25, the “KD fold (SG1 = 1)” value was 3.1 fold.

As to B26, the “KD fold (SG1 = 1)” value came to 4.4 fold.

With B27, the “KD fold (SG1 = 1)” value was determined as 0.7 fold.

As for B28, the “KD fold (SG1 = 1)” value was determined as 13.1 fold.

For the molecule B29, the “KD fold (SG1 = 1)” value came to 3.6 fold.

In a further test the target is T2, human FcγRIIb extracellular domain, …. The experiment in a line: SPR (Biacore), KD of SG1 / KD of variant.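 Note: relative to parent M103205H795-SG1 carrying the SG1 human heavy chain constant region.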 On the technique in general: In SPR one partner is held on a chip, and binding of the other changes the refractive index at the surface.
For B1, the “KD fold (SG1 = 1)” value is 1 fold.

For B2, the “KD fold (SG1 = 1)” value was 4.8 fold.

In the case of B3, the “KD fold (SG1 = 1)” value was found to be 1.6 fold.

Regarding B4, the “KD fold (SG1 = 1)” value amounted to 2.2 fold.

As for B5, the “KD fold (SG1 = 1)” value came to 1.1 fold.

As for B6, the “KD fold (SG1 = 1)” value came out at 1 fold.

On to B7, for which the “KD fold (SG1 = 1)” value was 1 fold.

Consider B8, for which the “KD fold (SG1 = 1)” value was found to be 9.2 fold.

As to B9, the “KD fold (SG1 = 1)” value is 2.4 fold.

On to B10, for which the “KD fold (SG1 = 1)” value is 2.2 fold.

Regarding B11, the “KD fold (SG1 = 1)” value turned out to be 15.3 fold.

As to B12, the “KD fold (SG1 = 1)” value worked out at 30.7 fold.

As for B13, the “KD fold (SG1 = 1)” value came to 2.2 fold.

Consider B14, for which the “KD fold (SG1 = 1)” value came out at 3.5 fold.

In the case of B15, the “KD fold (SG1 = 1)” value was found to be 4.2 fold.

Consider B16, for which the “KD fold (SG1 = 1)” value came out at 0.9 fold.

As to B17, the “KD fold (SG1 = 1)” value is 32.9 fold.

In the case of B18, the “KD fold (SG1 = 1)” value stood at 35.4 fold.

For the molecule B30, the “KD fold (SG1 = 1)” value came to 1.6 fold.

Turning to B19, the “KD fold (SG1 = 1)” value amounted to 6.3 fold.

Consider B20, for which the “KD fold (SG1 = 1)” value stood at 1.8 fold.

As to B21, the “KD fold (SG1 = 1)” value was found to be 2.9 fold.

B22: the “KD fold (SG1 = 1)” value is 2.6 fold.

Consider B23, for which the “KD fold (SG1 = 1)” value is 1.3 fold.

Take B24: the “KD fold (SG1 = 1)” value was determined as 1.9 fold.

For the molecule B25, the “KD fold (SG1 = 1)” value stood at 13.5 fold.

For the molecule B26, the “KD fold (SG1 = 1)” value is 30.7 fold.

As for B27, the “KD fold (SG1 = 1)” value amounted to 4.8 fold.

As for B28, the “KD fold (SG1 = 1)” value amounted to 12.8 fold.

As to B29, the “KD fold (SG1 = 1)” value is 1 fold.
